# Test results: patent US20220323583A1, “Pharmaceutical Formulations of Bi-Specific Diabodies and Use of the Same” (MacroGenics, Inc., priority 2019, published 2022)
# B1: DART-A: sequence-optimized CD123×CD3 bispecific diabody; chains SEQ ID NO:42 and SEQ ID NO:44 covalently bonded by a disulfide bond (protein)
# chain 1: QAVVTQEPSLTVSPGGTVTLTCRSSTGAVTTSNYANWVQQKPGQAPRGLIGGTNKRAPWTPARFSGSLLGGKAALTITGAQAEDEADYYCALWYSNLWVFGGGTKLTVLGGGGSGGGGEVQLVQSGAELKKPGASVKVSCKASGYTFTDYYMKWVRQAPGQGLEWIGDIIPSNGATFYNQKFKGRVTITVDKSTSTAYMELSSLRSEDTAVYYCARSHLLRASWFAYWGQGTLVTVSSGGCGGGEVAALEKEVAALEKEVAALEKEVAALEK
# chain 2: DFVMTQSPDSLAVSLGERVTMSCKSSQSLLNSGNQKNYLTWYQQKPGQPPKLLIYWASTRESGVPDRFSGSGSGTDFTLTISSLQAEDVAVYYCQNDYSYPYTFGQGTKLEIKGGGSGGGGEVQLVESGGGLVQPGGSLRLSCAASGFTFSTYAMNWVRQAPGKGLEWVGRIRSKYNNYATYYADSVKDRFTISRDDSKNSLYLQMNSLKTEDTAVYYCVRHGNFGNSYVSWFAYWGQGTLVTVSSGGCGGGKVAALKEKVAALKEKVAALKEKVAALKE
# modifications: interchain disulfide bond; First Polypeptide Chain of DART-A; Second Polypeptide Chain of DART-A
# Tests used:
# RS4-11 = experiment: Redirected killing of target cell line; format: cell-based
# [1] = target: T1, soluble recombinant human IL-3 receptor alpha (rhIL3Rα) (Homo sapiens, UniProt P26951); experiment: ELISA (rhIL3Rα) DART-A quantitation assay (concentration, protein recovery); conditions: for Actual Concentration: target 20 ng/mL
# T1 construct: soluble recombinant human IL-3 receptor alpha (rhIL3Rα)
# T1 sequence (P26951 19-305 limits assumed): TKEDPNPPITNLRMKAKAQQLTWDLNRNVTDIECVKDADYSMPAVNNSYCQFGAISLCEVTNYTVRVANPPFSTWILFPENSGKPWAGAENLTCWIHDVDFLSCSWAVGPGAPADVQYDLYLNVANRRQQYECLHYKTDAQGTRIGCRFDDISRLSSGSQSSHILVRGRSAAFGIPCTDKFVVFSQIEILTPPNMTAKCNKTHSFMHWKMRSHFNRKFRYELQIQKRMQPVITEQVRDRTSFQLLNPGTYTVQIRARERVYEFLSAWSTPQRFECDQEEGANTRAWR
# Method: In brief, the assay plate was coated with soluble recombinant human IL-3 receptor alpha (rhIL3Rα) overnight. […] After addition of MSD Read Buffer, the plate was inserted into the Sector Imager 2400 Plate Reader. When a voltage was applied to the plate electrodes, the bound Sulfo-TAG label produces an ECL signal, which was captured by the plate reader. A quantitative measure of the ECL signal emitted by each well was recorded, and the ECL counts emitted by the standard calibrators were used to generate a standard curve using a 4-parameter logistic (4PL) fit.
# Human CD123-His = target: T2, Human CD123-His (Homo sapiens, UniProt P26951); experiment: Binding of DART-A to CD123 (ka, kd, KD)
# T2 sequence (P26951 19-378): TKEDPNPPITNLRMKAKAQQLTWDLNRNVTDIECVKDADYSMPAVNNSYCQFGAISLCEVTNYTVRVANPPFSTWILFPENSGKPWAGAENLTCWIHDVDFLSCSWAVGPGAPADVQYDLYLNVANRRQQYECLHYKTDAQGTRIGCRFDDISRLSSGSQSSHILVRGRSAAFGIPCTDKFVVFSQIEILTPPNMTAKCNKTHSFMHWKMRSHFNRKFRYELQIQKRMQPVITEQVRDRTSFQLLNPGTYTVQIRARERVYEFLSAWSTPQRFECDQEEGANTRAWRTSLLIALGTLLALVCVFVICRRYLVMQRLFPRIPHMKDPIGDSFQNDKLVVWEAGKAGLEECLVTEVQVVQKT
# [2] = target: T3, recombinant Interleukin 3 Receptor (rhIL3-R) (Homo sapiens, UniProt P26951); experiment: CD123 binding ELISA (relative potency); conditions: Relative Potency vs DART-A reference standard, 1250 ng/mL dosing solution, Stabilizer 2
# T3 construct: The soluble IL3R was coated on the surface of an ELISA plate
# T3 sequence (P26951 19-305 limits assumed): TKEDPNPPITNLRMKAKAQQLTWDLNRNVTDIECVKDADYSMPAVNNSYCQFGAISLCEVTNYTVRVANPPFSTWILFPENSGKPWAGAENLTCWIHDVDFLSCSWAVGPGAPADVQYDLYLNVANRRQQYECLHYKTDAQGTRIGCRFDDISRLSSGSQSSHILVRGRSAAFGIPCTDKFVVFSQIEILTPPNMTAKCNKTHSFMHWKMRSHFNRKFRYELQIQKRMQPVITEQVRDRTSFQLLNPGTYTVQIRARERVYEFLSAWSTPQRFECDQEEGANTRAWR
# Description: The soluble IL3R was coated on the surface of an ELISA plate. […] Quantification of bound probe antibody was achieved by addition of a colorimetric AP substrate (AP-Yellow 1 Component Substrate). Oxidation of AP-Yellow by AP yields a colored product that can be read at 405±10 nm. The assay was quantified by the intensity of color, measured using a spectrophotometer set to an optimal wavelength of 405±10 nm. Data were fitted to a four-parameter model with the following variable constraints: the maximum, minimum and slope of each dose response curve is set to be shared between all dose response curves on the plate; the EC50 was determined independently for each curve.
# THP-1 = experiment: Redirected killing of target cell line; format: cell-based
# [3] = test system: primary ALL bone marrow samples; experiment: Incubation of primary ALL bone marrow samples with DART-A; format: cell-based, human; conditions: vs untreated control or Control DART
# Description: (§1) Upregulation of granzyme B and perforin levels in both CD8 and CD4 T cells was observed.
# [4] = test system: pDCs in cynomolgus monkey PBMCs; experiment: pDC depletion in PBMCs; format: cell-based
# Description: as §1
# pDCs in human PBMCs = experiment: pDC depletion in PBMCs; format: cell-based
# Description: as §1
# CD123+ cells = experiment: DART-A infusion in cynomolgus monkeys; format: in vivo
# Description: as §1
# A decrease in circulating T cells also occurred, but recovered to baseline before the subsequent infusion in monkeys on the 4-day dose schedule, consistent with DART-A-mediated mobilization.
# Osmolality = format: physicochemical; conditions: Stabilizer 2
# TF-1 = experiment: Redirected killing of target cell line; format: cell-based
# Human CD3ε/δ = Human CD3ε/δ (Homo sapiens, UniProt P07766); experiment: Binding of DART-A to CD3 (ka, kd, KD)
# Molm13 = experiment: Redirected killing of target cell line; format: cell-based
# [5] = test system: primary AML specimens (BMNC, PBMC); experiment: Incubation of primary AML bone marrow samples with DART-A; format: cell-based, human
# Description: as §1
# Sequence of Human CD3ε/δ (P07766 23-126 limits assumed): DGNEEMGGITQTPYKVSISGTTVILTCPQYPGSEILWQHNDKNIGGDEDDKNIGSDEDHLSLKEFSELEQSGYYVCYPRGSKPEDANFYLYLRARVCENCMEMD
# Sequence of Human CD3ε/δ (P04234 22-105 partner limits assumed): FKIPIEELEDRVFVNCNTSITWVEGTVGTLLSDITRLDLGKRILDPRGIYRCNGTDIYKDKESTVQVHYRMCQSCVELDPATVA
molecule,measurement,setting,value
B1,Max % Killing,RS4-11,60%
same,Actual Concentration,"[1]; Final PS80 0.1 mg/mL, Post 24 Hr Storage and 96 Hr Admin",19.3 ng/mL
same,Actual Concentration,"[1]; Final PS80 0.1 mg/mL, T0",19.9 ng/mL
same,Actual Concentration,"[1]; Final PS80 0.12 mg/mL, Post 24 Hr Storage and 96 Hr Admin",20.6 ng/mL
same,Actual Concentration,"[1]; Final PS80 0.12 mg/mL, T0",21.6 ng/mL
same,DART-A Concentration derived from quantitation assay,"[1]; Study 1, Stabilizer 1, dual-pump infusion RT, High (5000 ng/mL), Expected or Control (T0)",313.7 ng/mL
same,DART-A Concentration derived from quantitation assay,"[1]; Study 1, Stabilizer 1, dual-pump infusion RT, High (5000 ng/mL), T = 24 hours",235.2 ng/mL
same,DART-A Concentration derived from quantitation assay,"[1]; Study 1, Stabilizer 1, dual-pump infusion RT, High (5000 ng/mL), T = 48 hours",294.3 ng/mL
same,DART-A Concentration derived from quantitation assay,"[1]; Study 1, Stabilizer 1, dual-pump infusion RT, High (5000 ng/mL), T = 72 hours",254.4 ng/mL
same,DART-A Concentration derived from quantitation assay,"[1]; Study 1, Stabilizer 1, dual-pump infusion RT, Low (100 ng/mL), Expected or Control (T0)",10.6 ng/mL
same,DART-A Concentration derived from quantitation assay,"[1]; Study 1, Stabilizer 1, dual-pump infusion RT, Low (100 ng/mL), T = 24 hours",6.7 ng/mL
same,DART-A Concentration derived from quantitation assay,"[1]; Study 1, Stabilizer 1, dual-pump infusion RT, Low (100 ng/mL), T = 48 hours",12.9 ng/mL
same,DART-A Concentration derived from quantitation assay,"[1]; Study 1, Stabilizer 1, dual-pump infusion RT, Low (100 ng/mL), T = 72 hours",11.0 ng/mL
same,"concentration as prepared, DART-A quantitation assay","[1]; Study 1, high concentration (target 5000 ng/mL)",5067.5 ng/mL
same,"concentration as prepared, DART-A quantitation assay","[1]; Study 1, low concentration (target 100 ng/mL)",116.7 ng/mL
same,DART-A Concentration derived from quantitation assay,"[1]; Study 2, Stabilizer 1, cassette 25° C., 100 rpm, High (5000 ng/mL), T = 0",5398.7 ng/mL
same,DART-A Concentration derived from quantitation assay,"[1]; Study 2, Stabilizer 1, cassette 25° C., 100 rpm, High (5000 ng/mL), T = 24 hours",5241.2 ng/mL
same,DART-A Concentration derived from quantitation assay,"[1]; Study 2, Stabilizer 1, cassette 25° C., 100 rpm, High (5000 ng/mL), T = 48 hours",4967.5 ng/mL
same,DART-A Concentration derived from quantitation assay,"[1]; Study 2, Stabilizer 1, cassette 25° C., 100 rpm, High (5000 ng/mL), T = 72 hours",4916.7 ng/mL
same,DART-A Concentration derived from quantitation assay,"[1]; Study 2, Stabilizer 1, cassette 25° C., 100 rpm, Low (100 ng/mL), T = 0",110.1 ng/mL
same,DART-A Concentration derived from quantitation assay,"[1]; Study 2, Stabilizer 1, cassette 25° C., 100 rpm, Low (100 ng/mL), T = 24 hours",115.5 ng/mL
same,DART-A Concentration derived from quantitation assay,"[1]; Study 2, Stabilizer 1, cassette 25° C., 100 rpm, Low (100 ng/mL), T = 48 hours",103.8 ng/mL
same,DART-A Concentration derived from quantitation assay,"[1]; Study 2, Stabilizer 1, cassette 25° C., 100 rpm, Low (100 ng/mL), T = 72 hours",106.2 ng/mL
same,DART-A Concentration derived from quantitation assay,"[1]; Study 3, Stabilizer 1, cassette 37° C., 100 rpm, Low (100 ng/mL), T = 0",111.4 ng/mL
same,DART-A Concentration derived from quantitation assay,"[1]; Study 3, Stabilizer 1, cassette 37° C., 100 rpm, Low (100 ng/mL), T = 72 hours",99.4 ng/mL
same,DART-A Concentration derived from quantitation assay,"[1]; Study 3, Stabilizer 1, cassette 37° C., 100 rpm, second group, target concentration not given, T = 0",5682.9 ng/mL
same,DART-A Concentration derived from quantitation assay,"[1]; Study 3, Stabilizer 1, cassette 37° C., 100 rpm, second group, target concentration not given, T = 72 hours",4661.6 ng/mL
same,ka (± SD),Human CD123-His,1.6 (± 0.4) × 10^6 M^−1s^−1
same,kd (± SD),Human CD123-His,1.9 (± 0.4) × 10^−4 s^−1
same,"% Potency, CD123 binding",[2]; Post Infusion (Infusion Time = 48 Hrs),123%
same,"% Potency, CD123 binding","[2]; Post Storage (T = 72 Hrs), room temperature",140%
same,"% Potency, CD123 binding",[2]; T = 0,146%
same,Max % Killing,THP-1,40%
same,leukemic cell population,[3],depletion of the leukemic cell population over time
same,depletion of pDCs,[4],capable of mediating the depletion of pDCs cells
same,depletion of pDCs,pDCs in human PBMCs,capable of mediating the depletion of pDCs cells
same,"levels of cytokines interferon-gamma, TNF-alpha, IL-6, IL-5, IL-4 and IL-2",CD123+ cells; DART-A-treated animals,No elevation
same,pDC depletion after infusion,CD123+ cells; as little as 10 ng/kg DART-A,depleted as early as 4 days post infusion
same,circulating CD123+ cells,"CD123+ cells; infused 4 or 7 days a week, weekly escalating doses",depletion of circulating CD123+ cells 72 h after treatment initiation
same,Toxicity,"CD123+ cells; infused 4 or 7 days a week, weekly escalating doses, 4 weeks",limited to a minimal transient release of cytokines
same,Osmolality,"Osmolality; 10 ng/mL dosing solution, Post Infusion (Infusion Time = 48 Hrs)",274 mOsm/kg
same,Osmolality,"Osmolality; 10 ng/mL dosing solution, Post Storage (T = 72 Hrs), room temperature",275 mOsm/kg
same,Osmolality,"Osmolality; 10 ng/mL dosing solution, T = 0",275 mOsm/kg
same,Osmolality,"Osmolality; 20 ng/mL dosing solution, Post Infusion (Infusion Time = 96 Hrs)",276 mOsm/kg
same,Osmolality,"Osmolality; 20 ng/mL dosing solution, Post Storage (T =72 Hrs), room temperature",276 mOsm/kg
same,Osmolality,"Osmolality; 20 ng/mL dosing solution, T = 0",276 mOsm/kg
same,Osmolality,"Osmolality; 1250 ng/mL dosing solution, Post Infusion (Infusion Time = 48 Hrs)",276 mOsm/kg
same,Osmolality,"Osmolality; 1250 ng/mL dosing solution, Post Storage (T = 72 Hrs), room temperature",275 mOsm/kg
same,Osmolality,"Osmolality; 1250 ng/mL dosing solution, T = 0",275 mOsm/kg
same,Max % Killing,TF-1,46%
same,ka (± SD),Human CD3ε/δ,5.7 (± 0.6) × 10^5 M^−1s^−1
same,kd (± SD),Human CD3ε/δ,5.0 (± 0.9) × 10^−3 s^−1
same,Kd,Human CD3ε/δ; read-out: KD (± SD),9 ± 2.3 nM
same,Max % Killing,Molm13,43%
same,leukemic cell population,[5],depletion of the leukemic cell population over time
same,residual T cells (CD4 and CD8),[5],expansion of the residual T cells
